Experimental data taken from PMC11889887, “Blockade of αvβ6 and αvβ8 integrins with a chromogranin A-derived peptide inhibits TGFβ activation in tumors and suppresses tumor growth” (Journal of Experimental & Clinical Cancer Research : CR, 2025).
Bridge positions count the residues as written; N and C are the ends. Square brackets hold non-standard residues; d marks the D form. Ends that are not written are not given here. Lys(N3) = [N-]=[N+]=NCCCC[C@H](N)C(=O)O; Pra = C#CC[C@H](N)C(=O)O

Key:
[1] = target: T1, biotinylated recombinant human αvβ8 integrin (human, UniProt P06756 31-1048; P26012 43-684, biotinylated (which chain is not stated) | biotinylated (which chain is not stated)); test: ELISA; competitive integrin binding assay (taken as Assay 3): plates coated with human latent TGFβ1; various amounts of peptide 5a or 5a-HSA with 10 ng/ml biotinylated αvβ6 or αvβ8 in 20 mM Tris-HCl pH 7.4, 150 mM sodium chloride, 1 mM manganese chloride, 0.05% Tween-20, 0.5% BSA, 1 h; HRP-labeled streptavidin; details: both partners purified
T1 construct: integrin alpha-V, human, recombinant; integrin beta-8, human, recombinant; Detected by HRP-labeled streptavidin through the biotin; also called biotinylated-αvβ8; source: bought: Acros CROBiosystems (cat. IT8-H82W5)

[2] = target: T2, biotinylated recombinant human αvβ6 integrin (human, UniProt P06756 31-1048; P18564 22-709, biotinylated (which chain is not stated) | biotinylated (which chain is not stated)); test: as above; details: both partners purified
T2 construct: integrin alpha-V, human, recombinant; integrin beta-6, human, recombinant; Detected by HRP-labeled streptavidin through the biotin; also called biotinylated-αvβ6; source: bought: Acros CROBiosystems (cat. IT6-H82E4)

A Ki [1] of 3.9 nM and a Ki [2] of 1.7 nM were found for CFETLRGDLRILSILR[Pra]QNL[Lys(N3)]KELQD-NH2 (triazole 17-21) [peptide 5a] in this work.
